Source: patent US20190194310A1 (NUMAB INNOVATION, published 2019)

B1: recombinant human TNFβ (ligand, UniProt P01374 35-205, looked up)
chain: LPGVGLTPSAAQTARQHPKMHLAHSTLKPAAHLIGDPSKQNSLLWRANTDRAFLQDGFSLSNNSLLVPTSGIYFVYSQVVFSGKAYSPKATSSPLYLAHEVQLFSSQYPFHVPLLSSQKMVYPGLQEPWLHSMYHGAAFQLTQGDQLSTHTDGIPHLVLSPSTVFFGAFAL
B2: humanized scFv 16-02-B03-sc02 (scFv)
scFv: MDIQMTQSPSSLSASVGDRVTITCQSSQSVYSSNLAWYQQKPGKAPKLLIYSASKLASGVPSRFSGSGSGTDFTLTISSLQPEDEATYYCQGTYYTSNWLNAFGGGTKLTVLGGGGGSGGGGSGGGGSGGGGSEVQLVESGGGLVQPGGSLRLSCAASGIDLSSYAMGWVRQAPGKGLEWIGTISVGGSTYYANWAEGRFTISRDNSKNTVYLQMNSLRAEDTAVYYCAGGDYINFFYFNIWGQGTLVTVSS
notes: CDR graft on a Vκ1/VH3 scaffold; also called 16-02-B03-sc02 (CDR); 16-02-B03-sc02-scFv

Legend:
[1] = target: B2; assay: competition ELISA: scFv coated, biotinylated TNFα, unlabeled TNFβ or TNFα as competitor
Source text: (§1) The quality of recombinant human TNFβ has been analyzed 1) for purity by SDS-page and HPLC analysis, and 2) for biological activity in the mouse L929 cytotoxicity assay, by the manufacturer of the protein.

[2] = target: B2; assay: competition ELISA: scFv coated, biotinylated TNFα 75 ng/mL, unlabeled TNFβ as competitor
Source text: as §1

Rhesus monkey TNFα [3] = target: T1, Rhesus monkey TNFα (Rhesus monkey (Macaca mulatta), UniProt P48094 77-233); assay: cell-based or functional assay
recombinant human TNFα [4] = target: T2, recombinant human TNFα (human, UniProt P01375 77-233); assay: cell-based or functional assay
[5] = target: T3, recombinant Cynomolgus monkey TNFα (Cynomolgus monkey (Macaca fascicularis), UniProt P79337 77-233); assay: cell-based or functional assay
recombinant human TNFα [6] = target: T2, recombinant human TNFα; assay: inhibition ELISA; biotinylated TNFα 960 pM pre-incubated with scFv; competitor TNFRI-Fc coated
recombinant human TNFβ = target: B1; assay: competition ELISA: scFv coated, biotinylated TNFα, unlabeled TNFβ as competitor
Description: To control precision of the response, the dose-response curves was analyzed in duplicate.

Rhesus monkey TNFα [7] = target: T1, Rhesus monkey TNFα; assay: SPR (MASS-1); TNFα amine-coupled on chip, scFv injected 45-1.4 nM
Description: (§2) In a second step, Single Injection Cycle Kinetics (SiCK) were measured from a single injection cycle by simultaneously injecting six analyte samples at different concentrations into each of the eight parallel channels in the MASS-1 system. […] The apparent dissociation (kd) and association (kₐ) rate constants and the apparent dissociation equilibrium constant (KD) were calculated with the MASS-1 analysis software (Analyzer, Sierra Sensors) using one-to-one Langmuir binding model and quality of the fits was monitored based on Chi², which is a measure for the quality of the curve fitting. The smaller the value for the Chi² the more accurate is the fitting to the one-to-one Langmuir binding model. For affinity screenings, results were deemed valid if the Chi² was below 10 for the concentration analyzed. In cases where several scFv concentrations were analyzed, results were deemed valid if the average Chi² over all the concentrations tested was below 10.

recombinant human TNFα [8] = target: T2, recombinant human TNFα; assay: as above
Description: as §2

[9] = target: T3, recombinant Cynomolgus monkey TNFα; assay: as above
Description: as §2

recombinant human TNFα [10] = target: T2, recombinant human TNFα; assay: inhibition ELISA; biotinylated TNFα 960 pM pre-incubated with scFv; competitor TNFRII-Fc coated
Description: For the second inhibition ELISA, the extracellular domain of TNFRII fused to the Fc region of human IgG (R&D Systems, Cat. No. 726-R2) was coated at a concentration of 2 μg/mL. All subsequent steps were identical for both assays.

T1 sequence (P48094 77-233 limits assumed): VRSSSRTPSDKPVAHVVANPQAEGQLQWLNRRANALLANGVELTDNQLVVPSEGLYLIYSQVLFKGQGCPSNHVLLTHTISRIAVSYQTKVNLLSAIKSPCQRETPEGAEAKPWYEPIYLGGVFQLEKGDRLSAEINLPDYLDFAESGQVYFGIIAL
T2 sequence (P01375 77-233 limits assumed): as the sequence (P48094 77-233 limits assumed) above, with T44R, N72T, L138R counted along it
T3 sequence (P79337 77-233 limits assumed): as the sequence (P48094 77-233 limits assumed) above, with L37V counted along it

| Binder | Target selectivity, rel. IC50 of TNFβ vs TNFα [1] | IC50 [2] | Species-specificity IC50 [ng/mL], rhesus (L929 assay) (Rhesus monkey TNFα [3]) | Potency (L929 assay), rel. IC50 (IC50,Infliximab/IC50,scFv, ng/mL) (recombinant human TNFα [4]) | Species-specificity IC50 [ng/mL], human (L929 assay) (recombinant human TNFα [4]) | Species-specificity IC50 [ng/mL], cyno (L929 assay) [5] | IC50 (recombinant human TNFα [6]) | binding result (recombinant human TNFβ) | Kd (Rhesus monkey TNFα [7]) | koff (Rhesus monkey TNFα [7]) | kon (Rhesus monkey TNFα [7]) | Kd (recombinant human TNFα [8]) | koff (recombinant human TNFα [8]) | kon (recombinant human TNFα [8]) | Kd [9] | koff [9] | kon [9] | IC50 (recombinant human TNFα [10]) |
| --- | --- | --- | --- | --- | --- | --- | --- | --- | --- | --- | --- | --- | --- | --- | --- | --- | --- | --- |
| B1 | > 10000 fold | > 1250 µg/mL | – | – | – | – | – | – | – | – | – | – | – | – | – | – | – | – |
| B2 | – | – | 71.8 ng/mL | 1.7 | 6.9 ng/mL | 99.3 ng/mL | 0.0737 µg/mL | no binding (tested: 1250 µg/mL) | 1.6 nM | 0.00022 s⁻¹ | 130000 M⁻¹ s⁻¹ | 0.16 nM | 6.6e-05 s⁻¹ | 410000 M⁻¹ s⁻¹ | 1.1 nM | 0.00021 s⁻¹ | 180000 M⁻¹ s⁻¹ | 0.0795 µg/mL |
